Measurements reported in the supplement of paper PMC10567573.

B1: SPSB4 (parent)
chain: LDMDEGTLSFIVDGQYLGVAFRGL

Variants of: B1
Assay: protein stability index of a GFP-peptide fusion (GPS, HEK-293T) (PSI 1-6); higher = more stable
Details: c terminus: a fixed tail appended
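Further: lentivirally expressed fusions sorted by FACS into six bins by GFP to DsRed ratio, PSI derived from sequencing read proportions per bin multiplied by bin number.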

**Q.** For LDMDEGTLSFIVDGQYLGVAFRIL [G23I], which protein stability index is on record?
**A.** 2.48

**Q.** For LDMDEGTLSFIVDGQYLGVAFRHL [G23H], which protein stability index is on record?
**A.** 2.5

**Q.** For LDMDEGTLSFIVDGQYLGVAFRML [G23M], which protein stability index is on record?
**A.** 2.84

**Q.** For LDMDEGTLSFIVDGQYLGVAFRTL [G23T], which protein stability index is on record?
**A.** 2.5

**Q.** Which protein stability index does the source give for LDMDEGTLSFIVDGQYLGVAFRVL [G23V] here?
**A.** 3.48

**Q.** Which protein stability index does the source give for LDMDEGTLSFIVDGQYLGVAFRSL [G23S] here?
**A.** 3.28

**Q.** With LDMDEGTLSFIVDGQYLGVAFRKL [G23K] as the variant, how does the protein stability index read?
**A.** 1.97

**Q.** Which protein stability index does the source give for LDMDEGTLSFIVDGQYLGVAFRRL [G23R] here?
**A.** 1.88

**Q.** Which protein stability index does the source give for LDMDEGTLSFIVDGQYLGVAFRDL [G23D] here?
**A.** 1.84

**Q.** Which protein stability index does the source give for LDMDEGTLSFIVDGQYLGVAFREL [G23E] here?
**A.** 2.42

**Q.** With LDMDEGTLSFIVDGQYLGVAFRWL [G23W] as the variant, how does the protein stability index read?
**A.** 4

**Q.** With LDMDEGTLSFIVDGQYLGVAFRAL [G23A] as the variant, how does the protein stability index read?
**A.** 1.31

**Q.** For LDMDEGTLSFIVDGQYLGVAFRNL [G23N], which protein stability index is on record?
**A.** 2.38

**Q.** Which protein stability index does the source give for LDMDEGTLSFIVDGQYLGVAFRPL [G23P] here?
**A.** 2.1

**Q.** For LDMDEGTLSFIVDGQYLGVAFRFL [G23F], which protein stability index is on record?
**A.** 1.96

**Q.** Which protein stability index does the source give for LDMDEGTLSFIVDGQYLGVAFRQL [G23Q] here?
**A.** 1.47

**Q.** With LDMDEGTLSFIVDGQYLGVAFRCL [G23C] as the variant, how does the protein stability index read?
**A.** 1.86

**Q.** With LDMDEGTLSFIVDGQYLGVAFRGD [L24D] as the variant, how does the protein stability index read?
**A.** 1.78

**Q.** Which protein stability index does the source give for LDMDEGTLSFIVDGQYLGVAFRGA [L24A] here?
**A.** 1.22

**Q.** Which protein stability index does the source give for LDMDEGTLSFIVDGQYLGVAFRGF [L24F] here?
**A.** 3.21

**Q.** For LDMDEGTLSFIVDGQYLGVAFRGE [L24E], which protein stability index is on record?
**A.** 1.48

**Q.** Which protein stability index does the source give for LDMDEGTLSFIVDGQYLGVAFRGC [L24C] here?
**A.** 2.43

**Q.** With LDMDEGTLSFIVDGQYLGVAFRGH [L24H] as the variant, how does the protein stability index read?
**A.** 3.29

**Q.** For LDMDEGTLSFIVDGQYLGVAFRGI [L24I], which protein stability index is on record?
**A.** 3.11

**Q.** Which protein stability index does the source give for LDMDEGTLSFIVDGQYLGVAFRGK [L24K] here?
**A.** 1.65

**Q.** Which protein stability index does the source give for LDMDEGTLSFIVDGQYLGVAFRGG [L24G] here?
**A.** 1.69

**Q.** Which protein stability index does the source give for LDMDEGTLSFIVDGQYLGVEFRGL [A20E] here?
**A.** 1.88

**Q.** Which protein stability index does the source give for LDMDEGTLSFIVDGQYLGVPFRGL [A20P] here?
**A.** 1.55

**Q.** With LDMDEGTLSFIVDGQYLGVMFRGL [A20M] as the variant, how does the protein stability index read?
**A.** 2.48

**Q.** For LDMDEGTLSFIVDGQYLGVNFRGL [A20N], which protein stability index is on record?
**A.** 1.68

**Q.** For LDMDEGTLSFIVDGQYLGVHFRGL [A20H], which protein stability index is on record?
**A.** 1.89

**Q.** Which protein stability index does the source give for LDMDEGTLSFIVDGQYLGVYFRGL [A20Y] here?
**A.** 2.4

**Q.** Which protein stability index does the source give for LDMDEGTLSFIVDGQYLGVDFRGL [A20D] here?
**A.** 1.63

**Q.** For LDMDEGTLSFIVDGQYLGVVFRGL [A20V], which protein stability index is on record?
**A.** 3.1

**Q.** Which protein stability index does the source give for LDMDEGTLSFIVDGQYLGVLFRGL [A20L] here?
**A.** 2.51

**Q.** Which protein stability index does the source give for LDMDEGTLSFIVDGQYLGVIFRGL [A20I] here?
**A.** 2.13

**Q.** With LDMDEGTLSFIVDGQYLGVSFRGL [A20S] as the variant, how does the protein stability index read?
**A.** 2

**Q.** For LDMDEGTLSFIVDGQYLGVGFRGL [A20G], which protein stability index is on record?
**A.** 2.38

**Q.** With LDMDEGTLSFIVDGQYLGVCFRGL [A20C] as the variant, how does the protein stability index read?
**A.** 2.13

**Q.** Which protein stability index does the source give for LDMDEGTLSFIVDGQYLGVRFRGL [A20R] here?
**A.** 2.47

**Q.** With LDMDEGTLSFIVDGQYLGVTFRGL [A20T] as the variant, how does the protein stability index read?
**A.** 2.03

**Q.** For LDMDEGTLSFIVDGQYLGVWFRGL [A20W], which protein stability index is on record?
**A.** 2.61

**Q.** With LDMDEGTLSFIVDGQYLGVKFRGL [A20K] as the variant, how does the protein stability index read?
**A.** 2.11

**Q.** With LDMDEGTLSFIVDGQYLGVQFRGL [A20Q] as the variant, how does the protein stability index read?
**A.** 1.86

**Q.** With LDMDEGTLSFIVDGQYLGVAFYGL [R22Y] as the variant, how does the protein stability index read?
**A.** 3.56

**Q.** For LDMDEGTLSFIVDGQYLGVAFNGL [R22N], which protein stability index is on record?
**A.** 2.46

**Q.** For LDMDEGTLSFIVDGQYLGVAFCGL [R22C], which protein stability index is on record?
**A.** 2.55

**Q.** With LDMDEGTLSFIVDGQYLGVAFTGL [R22T] as the variant, how does the protein stability index read?
**A.** 4.1

**Q.** For LDMDEGTLSFIVDGQYLGVAFPGL [R22P], which protein stability index is on record?
**A.** 2.25

**Q.** For LDMDEGTLSFIVDGQYLGVAFWGL [R22W], which protein stability index is on record?
**A.** 1.31

**Q.** Which protein stability index does the source give for LDMDEGTLSFIVDGQYLGVAFHGL [R22H] here?
**A.** 3.23

**Q.** Which protein stability index does the source give for LDMDEGTLSFIVDGQYLGVAFEGL [R22E] here?
**A.** 2.05

**Q.** With LDMDEGTLSFIVDGQYLGVAFFGL [R22F] as the variant, how does the protein stability index read?
**A.** 2.57

**Q.** Which protein stability index does the source give for LDMDEGTLSFIVDGQYLGVAFIGL [R22I] here?
**A.** 2.24

**Q.** With LDMDEGTLSFIVDGQYLGVAFGGL [R22G] as the variant, how does the protein stability index read?
**A.** 2.69

**Q.** For LDMDEGTLSFIVDGQYLGVAFAGL [R22A], which protein stability index is on record?
**A.** 3

**Q.** With LDMDEGTLSFIVDGQYLGVAFQGL [R22Q] as the variant, how does the protein stability index read?
**A.** 2.1

**Q.** For LDMDEGTLSFIVDGQYLGVAFSGL [R22S], which protein stability index is on record?
**A.** 2.46

**Q.** Which protein stability index does the source give for LDMDEGTLSFIVDGQYLGVAFDGL [R22D] here?
**A.** 2.41

**Q.** With LDMDEGTLSFIVDGQYLGVAFKGL [R22K] as the variant, how does the protein stability index read?
**A.** 2.01

**Q.** Which protein stability index does the source give for LDMDEGTLSFIVDGQYLGVAFMGL [R22M] here?
**A.** 1.99

**Q.** Which protein stability index does the source give for LDMDEGTLSFIVDGQYLGVAFLGL [R22L] here?
**A.** 1.81

**Q.** For LDMDEGTLSFIVDGQYLGVAIRGL [F21I], which protein stability index is on record?
**A.** 2.95

**Q.** For LDMDEGTLSFIVDGQYLGVACRGL [F21C], which protein stability index is on record?
**A.** 1.62

**Q.** With LDMDEGTLSFIVDGQYLGVAKRGL [F21K] as the variant, how does the protein stability index read?
**A.** 2.39

**Q.** Which protein stability index does the source give for LDMDEGTLSFIVDGQYLGVAPRGL [F21P] here?
**A.** 1.89

**Q.** Which protein stability index does the source give for LDMDEGTLSFIVDGQYLGVADRGL [F21D] here?
**A.** 2.31

**Q.** For LDMDEGTLSFIVDGQYLGVATRGL [F21T], which protein stability index is on record?
**A.** 2.04

**Q.** For LDMDEGTLSFIVDGQYLGVARRGL [F21R], which protein stability index is on record?
**A.** 1.65

**Q.** With LDMDEGTLSFIVDGQYLGVAVRGL [F21V] as the variant, how does the protein stability index read?
**A.** 2.46

**Q.** With LDMDEGTLSFIVDGQYLGVAYRGL [F21Y] as the variant, how does the protein stability index read?
**A.** 2.27

**Q.** For LDMDEGTLSFIVDGQYLGVASRGL [F21S], which protein stability index is on record?
**A.** 2.18

**Q.** For LDMDEGTLSFIVDGQYLGVAMRGL [F21M], which protein stability index is on record?
**A.** 1.43

**Q.** With LDMDEGTLSFIVDGQYLGVAQRGL [F21Q] as the variant, how does the protein stability index read?
**A.** 1.98

**Q.** Which protein stability index does the source give for LDMDEGTLSFIVDGQYLGVANRGL [F21N] here?
**A.** 1.98

**Q.** For LDMDEGTLSFIVDGQYLGVAGRGL [F21G], which protein stability index is on record?
**A.** 1.76

**Q.** With LDMDEGTLSFIVDGQYLGVAARGL [F21A] as the variant, how does the protein stability index read?
**A.** 1.7

**Q.** For LDMDEGTLSFIVDGQYLGVAHRGL [F21H], which protein stability index is on record?
**A.** 1.72

**Q.** For LDMDEGTLSFIVDGQYLGVAERGL [F21E], which protein stability index is on record?
**A.** 1.96

**Q.** For LDMDEGTLSFIVDGQYLGVALRGL [F21L], which protein stability index is on record?
**A.** 1.8

**Q.** For LDMDEGTLSFIVDGQYLGVAWRGL [F21W], which protein stability index is on record?
**A.** 2.48

**Q.** Which protein stability index does the source give for LDMDEGTLSFIVDGQYLGLAFRGL [V19L] here?
**A.** 1.94

**Q.** Which protein stability index does the source give for LDMDEGTLSFIVDGQYLGKAFRGL [V19K] here?
**A.** 2.1

**Q.** With LDMDEGTLSFIVDGQYLGTAFRGL [V19T] as the variant, how does the protein stability index read?
**A.** 2.1

**Q.** With LDMDEGTLSFIVDGQYLGNAFRGL [V19N] as the variant, how does the protein stability index read?
**A.** 1.98

**Q.** Which protein stability index does the source give for LDMDEGTLSFIVDGQYLGMAFRGL [V19M] here?
**A.** 2.32

**Q.** With LDMDEGTLSFIVDGQYLGHAFRGL [V19H] as the variant, how does the protein stability index read?
**A.** 2.07

**Q.** With LDMDEGTLSFIVDGQYLGPAFRGL [V19P] as the variant, how does the protein stability index read?
**A.** 2.43

**Q.** For LDMDEGTLSFIVDGQYLGRAFRGL [V19R], which protein stability index is on record?
**A.** 2.04

**Q.** For LDMDEGTLSFIVDGQYLGQAFRGL [V19Q], which protein stability index is on record?
**A.** 1.94

**Q.** With LDMDEGTLSFIVDGQYLGSAFRGL [V19S] as the variant, how does the protein stability index read?
**A.** 1.66

**Q.** With LDMDEGTLSFIVDGQYLGWAFRGL [V19W] as the variant, how does the protein stability index read?
**A.** 2.04

**Q.** Which protein stability index does the source give for LDMDEGTLSFIVDGQYLGYAFRGL [V19Y] here?
**A.** 2.49

**Q.** Which protein stability index does the source give for LDMDEGTLSFIVDGQYLGIAFRGL [V19I] here?
**A.** 2.77
